A short description of data set [1]: folding stability dG unfold from trypsin proteolysis; higher = more stable. In a few lines:
(§1)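 Bayesian fitting of sequencing counts gave K50 for each design. Unfolding free energy followed by setting this against a sequence-predicted unfolded-state K50 and a shared folded-state K50, either per protease or with trypsin and chymotrypsin combined. The designs, under 80 residues and lacking cysteine, were digested in a PA-tagged cDNA display format at 11 threefold-diluted protease concentrations and without protease, and only those with AlphaFold2 dimer inter-PAE above 15 were kept.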

The nature of data set [2]: folding stability dG unfold from chymotrypsin proteolysis; higher = more stable. A digest of the protocol:
as §1

Data set [3] can be described thus: folding stability dG unfold (combined trypsin and chymotrypsin); higher = more stable. In a few lines:
as §1

± gives the half width of the 95% confidence interval.

As for “SAGGSAGGSAGKIKITEIHFMPNGMVVVEIEFEDPDGETFNLTVVFRFDPNGKIRDIHIMSAGGSAGGSAGG [r11_709_TrROS]”, the “folding stability dG unfold” value in data set [1] came to 3.35 ± 0.15 kcal/mol; in data set [2], 4.35 ± 0.07 kcal/mol; in data set [3], 4.22 ± 0.17 kcal/mol.
Take “SAGGSAGGSAGKIKIVKDEKTGEYKLVVYDKNGKKVKTITLSKEELEKNPELLKKLLEELSAGGSAGGSAGG [r17_496_TrROS_Hall]”: the “folding stability dG unfold” value in data set [1] amounted to 3.52 ± 0.27 kcal/mol; in data set [2] it was 4.56 ± 0.15 kcal/mol; in data set [3], 4.51 ± 0.17 kcal/mol.
In the case of “SAGGSAGGSAGKIVILVEPSVEELKAAAEALPGAKVTLEEVEVDGRKYLLATIELPPELLSAGGSAGGSAGG [r17_542_TrROS_Hall]”, the “folding stability dG unfold” value worked out at 2.17 ± 0.074 kcal/mol in data set [1], 2.27 ± 0.033 kcal/mol in data set [2] and 2.23 ± 0.07 kcal/mol in data set [3].
For “SAGGSAGGSAGKKIIIKVKPNMTPEEIAKKLAEELGVEVEIKKVKKLKNGELYIEIEIKPSAGGSAGGSAGG [r17_222_TrROS_Hall]”, the “folding stability dG unfold” value is 3.09 ± 0.17 kcal/mol in data set [1], 2.48 ± 0.19 kcal/mol in data set [2] and 2.82 ± 0.3 kcal/mol in data set [3].
For “SAGGSAGGSAGKKIKVRIKVKDPETNEYYEIEIEAETEEEALEALKKLFPNVKKVEIVPASAGGSAGGSAGG [r11_25_TrROS_Hall]”, the “folding stability dG unfold” value in data set [1] turned out to be 3.26 ± 0.11 kcal/mol; in data set [2], 2.69 ± 0.11 kcal/mol; in data set [3], 3.18 ± 0.15 kcal/mol.
Consider “SAGGSAGGSAGKKKIIILINENMKEEEIVDYIKKKYGKNVKIEEIIPISPNIKIIKVIIDSAGGSAGGSAGG [r11_580_TrMRF]”, for which the “folding stability dG unfold” value in data set [1] was 3.96 ± 0.12 kcal/mol; in data set [2], 4.01 ± 0.17 kcal/mol; in data set [3], 4.02 ± 0.14 kcal/mol.
In the case of “SAGGSAGGSAGKKKIVFLVEDPEEALKTLTFPKDANIEIEKIEVKPLPNGLYEVVIYLKNSAGGSAGGSAGG [r11_150_TrMRF]”, the results for the “folding stability dG unfold” value in data set [1], in data set [2] and in data set [3] were 2.76 ± 0.081 kcal/mol, 4.59 ± 0.1 kcal/mol and 4.29 ± 0.24 kcal/mol, respectively.
Turning to “SAGGSAGGSAGKKKKKKPKKVKSVKIKITIKNKNGEKKEITVTFNKDGKLTLEEIKKLLKSAGGSAGGSAGG [r11_759_TrROS_Hall]”, the “folding stability dG unfold” value in data set [1] is 2.22 ± 0.056 kcal/mol; in data set [2] it was 2.51 ± 0.12 kcal/mol; in data set [3], 2.28 ± 0.21 kcal/mol.
For “SAGGSAGGSAGKKKLVIEQRPDGLVRIRLPNGKVLEVSREELEELAKELGIDKVEIYPVPSAGGSAGGSAGG [r11_312_TrROS_Hall]” the same measures were 1.58 ± 0.025 kcal/mol, 2.067 ± 0.019 kcal/mol and 1.83 ± 0.05 kcal/mol.
For “SAGGSAGGSAGKKKLVVVVDPEEPGRVRIYRDGKVIEMSLEELKKLGIDEVVSVEELLAKSAGGSAGGSAGG [r17_88_TrROS_Hall]”, in that order: 1.03 ± 0.04 kcal/mol, 2.34 ± 0.026 kcal/mol and 1.96 ± 0.09 kcal/mol.
With “SAGGSAGGSAGKKPEKYILIKVKKEDVEKLLEAIKKLLPPGAEIVKIEKTPEYVYIVVKLSAGGSAGGSAGG [r11_698_TrROS_Hall]”, the “folding stability dG unfold” value was found to be 3.39 ± 0.13 kcal/mol in data set [1], 4.38 ± 0.07 kcal/mol in data set [2] and 4.21 ± 0.086 kcal/mol in data set [3].
Regarding “SAGGSAGGSAGKKTLPTYDPKKGKISLIVIEDKEGKEIVFEAFGDGKEFIEAAKEFEKKISAGGSAGGSAGG [r11_119_TrMRF]”, the results for the “folding stability dG unfold” value in data set [1], in data set [2] and in data set [3] were -0.463 ± 0.12 kcal/mol, 0.182 ± 0.064 kcal/mol and -0.0388 ± 0.099 kcal/mol, respectively.
As for “SAGGSAGGSAGKKVTLKVLVKNENGKLYMFEAEYEFDENGKLVKVKVKVYEVEVKDLKLPSAGGSAGGSAGG [r11_1019_TrROS_Hall]”, the “folding stability dG unfold” value is 2.66 ± 0.13 kcal/mol in data set [1], 3.02 ± 0.039 kcal/mol in data set [2] and 2.86 ± 0.16 kcal/mol in data set [3].
As for “SAGGSAGGSAGKKYLIKIEVEKNGKKYTITMSLEELKKLISSPNVKIVKIEIVEVSEEDLSAGGSAGGSAGG [r17_204_TrROS_Hall]”, the “folding stability dG unfold” value in data set [1] stood at 4.33 ± 0.15 kcal/mol; in data set [2], 5 ± 0.07 kcal/mol; in data set [3], 4.98 ± 0.11 kcal/mol.
“SAGGSAGGSAGKLEVVELEDGYLVVYDPETGLIVLYTPEEVVAELLDAFDPDKPVVVVEFSAGGSAGGSAGG [r11_374_TrMRF]”: the “folding stability dG unfold” value stood at 1.46 ± 0.091 kcal/mol in data set [1], 0.689 ± 0.064 kcal/mol in data set [2] and 1.17 ± 0.11 kcal/mol in data set [3].
With “SAGGSAGGSAGKLKIKSVITFESEDDLIVKLIEVDDKVFAIVLDPKTGKPVKIIPDNEIFSAGGSAGGSAGG [r11_851_TrMRF]”, the figures for the “folding stability dG unfold” value in data set [1], in data set [2] and in data set [3] were 0.0652 ± 0.13 kcal/mol, 1.2 ± 0.13 kcal/mol and 0.873 ± 0.18 kcal/mol, respectively.
In the case of “SAGGSAGGSAGKLVVVRAIDPENPFVVATTSDNRTYVFDSLEELLEQVPEGVPVLFLPTVSAGGSAGGSAGG [r17_295_TrMRF]”, the entries for the “folding stability dG unfold” value in data set [1], in data set [2] and in data set [3] were 0.369 ± 0.028 kcal/mol, 1.22 ± 0.071 kcal/mol and 0.933 ± 0.081 kcal/mol, respectively.
Turning to “SAGGSAGGSAGKMYKAKVKIGNKEYEAYIEENVPEDGTITVKFDDKTIEIKAENIEVYDESAGGSAGGSAGG [r11_247_TrMRF]”, the entries for the “folding stability dG unfold” value in data set [1], in data set [2] and in data set [3] were 0.905 ± 0.031 kcal/mol, 1.32 ± 0.11 kcal/mol and 1.15 ± 0.067 kcal/mol, respectively.
Consider “SAGGSAGGSAGKNMVEIEMMFVLPDGWFIKTSLRINPDKPGRIHEVEIEIRKIPPNDEQISAGGSAGGSAGG [r17_299_TrROS]”, for which the “folding stability dG unfold” value in data set [1] is 3.51 ± 0.24 kcal/mol; in data set [2], 4.31 ± 0.17 kcal/mol; in data set [3], 4.06 ± 0.19 kcal/mol.
Turning to “SAGGSAGGSAGKNPDGQPAPTIEIEPRTRELPDNGYKITIMRIRFPDSGVEFPMIMISPPSAGGSAGGSAGG [r17_31_TrROS]”, the “folding stability dG unfold” value in data set [1] is 0.833 ± 0.072 kcal/mol; in data set [2] it was 1.51 ± 0.091 kcal/mol; in data set [3], 1.29 ± 0.1 kcal/mol.
In the case of “SAGGSAGGSAGKPEVKVEAEVEPYPETDLVVVNVRVYVDGVPVEIPFVVPPSVAEAFLKASAGGSAGGSAGG [r11_700_TrMRF]”, the “folding stability dG unfold” value in data set [1] was 1.08 ± 0.03 kcal/mol; in data set [2] it was 1.26 ± 0.024 kcal/mol; in data set [3], 1.16 ± 0.048 kcal/mol.
For the sequence “SAGGSAGGSAGKPIKLEEVLEKLNPEKIESVFVFPPIPYVVVLLKDSNGNKKIIVVKEDKSAGGSAGGSAGG [r17_374_TrMRF]”, the “folding stability dG unfold” value in data set [1] was 0.695 ± 0.019 kcal/mol; in data set [2] it was 0.922 ± 0.21 kcal/mol; in data set [3], 0.837 ± 0.13 kcal/mol.
As to “SAGGSAGGSAGKPIPYRITLETETTRAVFTIPADVPLEKVVEIAREIRELYPAPFSIEPSSAGGSAGGSAGG [r11_515_TrMRF]”, the figures for the “folding stability dG unfold” value in data set [1], in data set [2] and in data set [3] were 0.14 ± 0.21 kcal/mol, -0.00667 ± 0.43 kcal/mol and 0.197 ± 0.21 kcal/mol, respectively.
Take “SAGGSAGGSAGKPKEIFVFDKEIDADEAVALLPDEVKEVVVFDIEEAREKGGILIKAVVDSAGGSAGGSAGG [r11_1002_TrMRF]”: the “folding stability dG unfold” value is -1.18 ± 0.61 kcal/mol in data set [1], 0.898 ± 0.1 kcal/mol in data set [2] and 0.54 ± 0.14 kcal/mol in data set [3].
For the sequence “SAGGSAGGSAGKPKIKIEEIIEIEVITKKKIPETGKEKETPEKLYIIKVKVENIPPNLKVSAGGSAGGSAGG [r17_530_TrMRF]”, the “folding stability dG unfold” value came to 0.466 ± 0.11 kcal/mol in data set [1], 2.11 ± 0.06 kcal/mol in data set [2] and 1.38 ± 0.25 kcal/mol in data set [3].
As for “SAGGSAGGSAGKPKVRLKLRLTVRVTTLNEDGSLEETEVELELEVELPEVRLPSLEELLKSAGGSAGGSAGG [r11_285_TrROS_Hall]”, the figures for the “folding stability dG unfold” value in data set [1], in data set [2] and in data set [3] were 3.22 ± 0.23 kcal/mol, 2.92 ± 0.24 kcal/mol and 3.07 ± 0.41 kcal/mol, respectively.

(Values after the supplement of paper PMC12764529.)
